Patent US20050186646

Legend:
[1] = target: T1, recombinant single-tagged VWF-A2 peptide
T1 chain: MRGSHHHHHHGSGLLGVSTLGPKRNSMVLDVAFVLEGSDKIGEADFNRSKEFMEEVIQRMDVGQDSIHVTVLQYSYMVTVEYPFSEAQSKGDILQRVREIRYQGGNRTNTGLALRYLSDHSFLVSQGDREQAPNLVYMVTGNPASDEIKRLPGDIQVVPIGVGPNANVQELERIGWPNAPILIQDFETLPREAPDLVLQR

[2] = target: T2, recombinant double-tagged VWF-A2 peptide
T2 chain: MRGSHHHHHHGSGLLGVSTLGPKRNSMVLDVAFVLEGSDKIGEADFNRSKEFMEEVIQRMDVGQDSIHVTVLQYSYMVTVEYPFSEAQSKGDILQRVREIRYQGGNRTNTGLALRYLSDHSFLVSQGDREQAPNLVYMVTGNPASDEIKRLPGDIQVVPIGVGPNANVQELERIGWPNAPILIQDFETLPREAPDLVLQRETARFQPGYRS

B1: ADAMTS-13 (protein)
chain: AAGGILHLELLVAVGPDVFQAHQEDTERYVLTNLNIGAELLRDPSLGAQFRVHLVKMVILTEPEGAPNITANLTSSLLSVCGWSQTINPEDDTDPGHADLVLYITRFDLELPDGNRQVRGVTQLGGACSPTWSCLITEDTGFDLGVTIAHEIGHSFGLEHDGAPGSGCGPSGHVMASDGAAPRAGLAWSPCSRRQLLSLLSAGRARCVWDPPRPQPGSAGHPPDAQPGLYYSANEQCRVAFGPKAVACTFAREHLDMCQALSCHTDPLDQSSCSRLLVPLLDGTECGVEKWCSKGRCRSLVELTPIAAVHGRWSSWGPRSPCSRSCGGGVVTRRRQCNNPRPAFGGRACVGADLQAEMCNTQACEKTQLEFMSQQCARTDGQPLRSSPGGASFYHWGAAVPHSQGDALCRHMCRAIGESFIMKRGDSFLDGTRCMPSGPREDGTLSLCVSGSCRTFGCDGRMDSQQVWDRCQVCGGDNSTCSPRKGSFTAGRAREYVTFLTVTPNLTSVYIANHRPLFTHLAVRIGGRYVVAGKMSISPNTTYPSLLEDGRVEYRVALTEDRLPRLEEIRIWGPLQEDADIQVYRRYGEEYGNLTRPDITFTYFQPKPRQAWVWAAVRGPCSVSCGAGLRWVNYSCLDQARKELVETVQCQGSQQPPAWPEACVLEPCPPYWAVGDFGPCSASCGGGLRERPVRCVEAQGSLLKTLPPARCRAGAQQPAVALETCNPQPCPARWEVSEPSSCTSAGGAGLALENETCVPGADGLEAPVTEGPGSVDEKLPAPEPCVGMSCPPGWGHLDATSAGEKAPSPWGSIRTGAQAAHVWTPAAGSCSVSCGRGLMELRFLCMDSALRVPVQEELCGLASKPGSRREVCQAVPCPARWQYKLAACSVSCGRGVVRRILYCARAHGEDDGEEILLDTQCQGLPRPEPQEACSLEPCPPRWKVMSLGPCSASCGLGTARRSVACVQLDQGQDVEVDEAACAALVRPEASVPCLIADCTYRWHVGTWMECSVSCGDGIQRRRDTCLGPQAQAPVPADFCQHLPKPVTVRGCWAGPCVGQGTPSLVPHEEAAAPGRTTATPAGASLEWSQARGLLFSPAPQPRRLLPGPQENSVQSSACGRQHLEPTGTIDMRGPGQADCAVAIGRPLGEVVTLRVLESSLNCSAGDMLLLWGRLTWRKMCRKLLDMTFSSKTNTLVVRQRCGRPGGGVLLRYGSQLAPETFYRECDMQLFGPWGEIVSPSLSPATSNAGGCRLFINVAPHARIAIHALATNMGAGTEGANASYILIRDTHSLRTTAFHGQQVLYWESESSQAEMEFSEGFLKAQASLRGQYWTLQSWVPEMQDPQSWKGKEGT
[1]
  cleavage of VWF-A2 protein, immunoblot (16 kDa band): Healthy plasma (FIG. 2, lane 1), and partially isolated ADAMTS-13 (FIG. 2, lane 3) produced the expected band of 16 kDa
  cleavage of recombinant single-tagged VWF-A2 (16 kDa band): After one hour incubation, proteolysis by plasma from a healthy individual and the partially isolated enzyme produced the expected 16 kD band corresponding to the sequence 1481-1605 of SEQ ID NO:8 plus the 12 amino acid residues from the His-tag
[2]
  cleavage of double-tagged VWF-A2 peptide, ELISA (loss of Tag-100 signal): the specific cleavage activity by ADAMTS-13 on the VWF-A2 peptide was also demonstrated using three different dilutions of partially isolated ADAMTS-13 (275 µg/mL of total protein) (FIG. 5B)
  cleavage of double-tagged VWF-A2 peptide, immunoblot: The cleavage of the double-tagged VWF-A2 peptide by ADAMTS-13 was efficiently detected by immunoblotting
